Consider 31 sequences from the supplement of paper PMC9170038.

The data set relates to MS2 coat protein. Kind of data set: apparent KD of MS2 coat protein; designed switch direction (-1 OFF switch, 1 ON switch): -1; higher = weaker reporter binding. The essentials:
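Designed RNA switches sharing common flanks were transcribed on Illumina chips by stalled E. coli RNA polymerase. They were titrated with SNAP-549-labelled MS2 coat protein, from 0.7 or 1.5 nM doubling to 3 µM, in Tris-HCl pH 7.5 buffer with KCl, MgCl2, BSA, DTT, tRNA and Tween-20. Titrations ran without input, with 200 uM small-molecule ligand, or with an oligonucleotide input. The apparent KD of each design is the median over its clusters, after curve-fitting of normalised cluster fluorescence.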

The mark [1] stands for this setting: input ligand: microRNA oligo, concentration not stated.
The mark [2] stands for this setting: Eterna round: R95, input ligand: microRNA oligo, concentration not stated.
Setting [3] is: Eterna round: R95, input ligand: FMN 200 uM.
Where [4] appears, read: Eterna round: R95, input ligand: none.

For “ACGUUCAUUGAACAUGAGGAUCACCCAUGUGGCCUCCGGGUGGAGGAUAUGCACCAGGCCGAGGUGUAGAAGGCCAUAUACCGA [Riraed] (Eterna round: R96, puzzle: Exclusion NG 3)”, the “apparent KD of MS2 coat protein” value worked out at 155 nM (input ligand: FMN 200 uM), 49 nM under setting [1] and 81.4 nM (input ligand: none).
As for “ACUAGAUGAGGAUAUGCACAUUUUAGUGUUCCUCUAGAUUAACAUGAGGAUCACCCAUGUAGAAGGCGUCAUUU [Exclusion 2 - 13] (Eterna round: R96, puzzle: Exclusion 2)”, the “apparent KD of MS2 coat protein” value runs as follows: (input ligand: FMN 200 uM) 119 nM; under setting [1], 59.1 nM; (input ligand: none) 84.2 nM.
Turning to “ACUAGAUGAGGAUAUGCACAUUUUAGUGUUCCUCUAGAUUAACAUGAGGAUCACCCAUGUAGAAGGCGUCAUUU [Exclusion 2 - 13] (puzzle: Exclusion 2)”, the “apparent KD of MS2 coat protein” value under setting [2] was found to be 69.7 nM.
On the same count and under the same terms, to “ACUAGAUGAGGAUAUGCAUAUUUUCGUGUUCUUCUAGAUUAACAUGAGGAUCACCCAUGUAGAAGGCGUCAAUA [Exclusion 2 - 15] (puzzle: Exclusion 2)” belongs 15.4 nM; to “ACUAGAUGAGGAUAUGCAUGUUUUCAUGUUCUUCUAGAUUAACAUGAGGAUCACCCAUGUAGAAGGCGUCUUUU [Exclusion 2 - 31] (puzzle: Exclusion 2)”, 22.4 nM.
As for “ACUCUGCGAGGAUAUACAUGAGGAUCACCCAUGUGCGAGUUACUUGUGAGGUCGGUUGGUAGAAGGCGCGGAGA [Mat - Exclusion 3 - Mod of JL D101] (puzzle: Exclusion 3)”, the “apparent KD of MS2 coat protein” value under setting [2] amounted to 89.7 nM.
As for “ACUGGAGCAGGAUAUAUAUGACGUGCUUCGGCACGGUGAGUACAUGAGGAUCACCCAUGUAGAAGGGCUCCAGU [Exclusion 2 (Mod2 of Brourd's E2/9-D2)] (Eterna round: R97, puzzle: Exclusion 2)”, the “apparent KD of MS2 coat protein” value came to 88.4 nM (input ligand: FMN 200 uM) and 23.4 nM (input ligand: none).
As to “ACUGGUCGAGGAUAUACAUGAGGAUCACCCAUGUGAUCAGCAGUCCUCGGACUGCAAUGUAGAAGGCGACCAGU [E3/1-A2] (Eterna round: R97, puzzle: Exclusion 3)”, the “apparent KD of MS2 coat protein” value by setting is: (input ligand: FMN 200 uM) 143 nM; (input ligand: none) 356 nM.
With “ACUUAUAGAGGAUAUACAGUUAAUUACAUGAGGAUCACCCAUGUUCUUCAAUGUAUAUAAGUAGAAGGCUAAGGAA [Ex5 Malc#5 mod] (Eterna round: R97, puzzle: Exclusion 5)”, the “apparent KD of MS2 coat protein” value is, setting by setting: (input ligand: FMN 200 uM) 64.3 nM; (input ligand: none) 16.7 nM.
The like results for “ACUUAUGCGGAGGAUAUUUAACGUAGCGAAAGUAAAGAAGGCCGAACAUGAGGAUCACCCAUGUGGAGGUGUAA [Eternabot (L1) Solution 24] (Eterna round: R97, puzzle: Exclusion 6)” were, in that order, 92.5 nM and 23 nM.
For the sequence “ACUUAUUGAGGAUAUACAGAUUAUUACAUGAGGAUCACCCAUGUUCUUCAAUGUAUAUAUGUAGAAGGCAGAGGAA [JL-ex5-4.24 Malcolm mod] (Eterna round: R97, puzzle: Exclusion 5)”, the “apparent KD of MS2 coat protein” value reads like this: (input ligand: FMN 200 uM) 87.6 nM; (input ligand: none) 39.7 nM.
For “ACUUGCGAUAUGCUCGUCUUAUUUUUGUUGACGUUCUAUACAUGAGGAUCACCCAUGUUUUGUUCCUUGUGCUGGUA [JR_SV3TOV2_Sub072] (puzzle: Sensor v3, turn-off variant 2)”, the “apparent KD of MS2 coat protein” value is, setting by setting: under setting [3], 161 nM; under setting [2], 170 nM; under setting [4], 184 nM.
With “ACUUGUGUUGAGGAUAUGCGCCGGCUCGCUGGCGCAGAAGGCGGCACAUGAGGAUCACCCAUGUCAGUUCGCGU [salish99_ex6_r004_002] (Eterna round: R97, puzzle: Exclusion 6)”, the “apparent KD of MS2 coat protein” value by setting is: (input ligand: FMN 200 uM) 300 nM; (input ligand: none) 26.4 nM.
For “ACUUUUUGAGGAUAUACAUUUAUCCACAUGAGGAUCACCCAUGUACAAACAUGUAUUUGUGUAGAAGGCAGAAGAA [JR_Ex5_Sub069] (Eterna round: R97, puzzle: Exclusion 5)”, the “apparent KD of MS2 coat protein” value came to 54.5 nM (input ligand: FMN 200 uM) and 60.7 nM (input ligand: none).
On to “AGAAAGCAAGGAUAUACAAGGAAACGACGGAAAGUAGAGAGACAUGAGGAUCACCCAUGUAGAAGGUGCGAGAA [JR_Exclu2_Sub032] (puzzle: Exclusion 2)”, for which the “apparent KD of MS2 coat protein” value came out at 33.8 nM under setting [3], 28.7 nM under setting [2] and 26.5 nM under setting [4].
The like results for “AGAAAUGCCCAUGGCCACAAGCUUUUUGCUUAUCUUACCACAUGAGGAUCACCCAUGUGACAUGGGCUCCUGAUAAU [Teedor] (puzzle: Sensor v3, turn-off variant 2)” were, in that order, 18.5 nM, 19.4 nM and 17.1 nM.
On to “AGAAAUGCCCAUGGCCGCAAGCCUUUUGCUUGUCUUACCACAUGAGGAUCACCCAUGUGACAUGGGCUCCUGAUAAU [Zace] (puzzle: Sensor v3, turn-off variant 2)”, for which the “apparent KD of MS2 coat protein” value worked out at 12.6 nM under setting [3], 10.4 nM under setting [2] and 11 nM under setting [4].
As for “AGAAUGCGAGGAUAUACAGCAAGAUAGCAAAAGACCCUCCAACAUGAGGAUCACCCAUGUAGAAGGCGCAUUCA [Eternabot (Original) Solution 19] (Eterna round: R97, puzzle: Exclusion 2)”, the “apparent KD of MS2 coat protein” value (input ligand: FMN 200 uM) was determined as 110 nM and the “apparent KD of MS2 coat protein” value (input ligand: none) worked out at 109 nM.
For “AGACGUUAACAGGAUAUGGCCCUGCCGCAAGCGUUAGAAGGGUUGACAUGAGGAUCACCCAUGUGUGAUAGAAG [Eternabot (L1) Solution 95] (Eterna round: R97, puzzle: Exclusion 6)”, in that order: 217 nM and 316 nM.
For “AGAGAAUACUCAGGAUAUCUUAAUAGAAAGAGUAGAGAAGGGAGACAUGAGGAUCACCCAUGUGAAGUCUUGAGACUACAUGGU [Prohibition 28 - Jieux - Exclusion NG 1] (Eterna round: R96, puzzle: Exclusion NG 1)”, under setting [1], the “apparent KD of MS2 coat protein” value amounted to 305 nM.
As for “AGAGAAUAGACAGGAUAUGAGAAUAGAUAGAGCUCAGAAGGGUCACAUGAGGAUCACCCAUGUGAAGUCUUGAGGCUGCGUGGA [Prohibition 19 - Jieux - Exclusion NG 1] (Eterna round: R96, puzzle: Exclusion NG 1)”, the “apparent KD of MS2 coat protein” value runs as follows: (input ligand: FMN 200 uM) 14.6 nM; under setting [1], 10.9 nM; (input ligand: none) 18.3 nM.
Consider “AGAGAGUCAGGAUAUGACGAAGAGAACAUGAGGAUCACCCAUGUAGCUUCGUAAUUAUCGUCAGAAGGGACGAACU [JR_Ex5_Sub089] (Eterna round: R97, puzzle: Exclusion 5)”, for which the “apparent KD of MS2 coat protein” value is 15.7 nM (input ligand: FMN 200 uM) and 14.2 nM (input ligand: none).
On to “AGAGAUGCCCAUGGCCGCAAGCUUUUUGCUUGUCUUACCACAUGAGGAUCACCCAUGUGACAUGGGCUCCUUAUAAU [Essoator] (puzzle: Sensor v3, turn-off variant 2)”, for which the “apparent KD of MS2 coat protein” value runs as follows: under setting [3], 13.5 nM; under setting [2], 9.99 nM; under setting [4], 12.1 nM.
Consider “AGAGUGCUGCGAGGAUAUACAUGAGGAUCACCCAUGUUUUCGUGUGAGGCUUUGCCUCACACGAAGUAGAAGGCGCAGUACUCU [Mat - Exclusion NG 2 - Mod of JL - D31] (Eterna round: R96, puzzle: Exclusion NG 2)”, for which the “apparent KD of MS2 coat protein” value was 7.9 nM (input ligand: FMN 200 uM), 8.79 nM under setting [1] and 12.2 nM (input ligand: none).
On to “AGAUCACAUGAGGAUCACCCAUGUCAGGAUAUCGUCACUGGAGCCUCGGCUCCAGUGACGAGAAGGGAUAAUUA [E1/4-A2] (Eterna round: R97, puzzle: Exclusion 1)”, for which the “apparent KD of MS2 coat protein” value was determined as 116 nM (input ligand: FMN 200 uM) and 69 nM (input ligand: none).
The like results for “AGAUCUUCCGUAAGGAUAUGUGUGAAACAGACGGCACAGAAGGUACAUGAGGAUCACCCAUGUUACGCCGCGUA [Eternabot (L1) Solution 85] (Eterna round: R97, puzzle: Brourd's mod of Exclusion 4)” were, in that order, 62.3 nM and 19.1 nM.
Turning to “AGAUGCUCAAGUCGACAUGAGGAUCACCCAUGUACAGUUAACGAGGAUAUCCGAGAUAAAUAAUAGGAGAAGGCGUGAUCAUGA [Ex NG3 #3] (Eterna round: R96, puzzle: Exclusion NG 3)”, the “apparent KD of MS2 coat protein” value was found to be 154 nM (input ligand: FMN 200 uM), 78.2 nM under setting [1] and 123 nM (input ligand: none).
Regarding “AGAUGGCGAGGAUAUACAUGAGGAUCACCCAUGUGAAGAGAAAGAGUGAGGAAGAAAAGUAGAAGGCGCUGUCA [Mat - Exclusion 3 - Mod of Salish D29] (puzzle: Exclusion 3)”, the “apparent KD of MS2 coat protein” value is 897 nM under setting [3], 99.7 nM under setting [2] and 88.2 nM under setting [4].
For “AGAUGGCGAGGAUAUACAUGAGGAUCACCCAUGUGAAGAUAAAGAGUGAGGAAGAAAAGUAGAAGGCGCUGUCA [Mat - Exclusion 3 - Mod of Salish D28] (Eterna round: R96, puzzle: Exclusion 3)”, the “apparent KD of MS2 coat protein” value under setting [1] turned out to be 103 nM.
“AGAUGGCGAGGAUAUACAUGAGGAUCACCCAUGUGAAGAUAAAGAGUGAGGAAGAAAAGUAGAAGGCGCUGUCA [Mat - Exclusion 3 - Mod of Salish D28] (puzzle: Exclusion 3)”: the “apparent KD of MS2 coat protein” value by setting is: under setting [3], 351 nM; under setting [2], 106 nM; under setting [4], 123 nM.
With “AGAUGUAGAUACCGAUCCUACAUGAGGAUCACCCAUGUAGCUAGACGUGCGGGCGGCGCUCGUCGGACUACCAGUAG [salish99_TOv1_r3_095] (puzzle: Sensor v3, turn-off variant 1)”, the “apparent KD of MS2 coat protein” value came out at 163 nM under setting [3], 155 nM under setting [2] and 232 nM under setting [4].
